In patent US20240075093A1 (VIRGINIA TECH INTELLECTUAL PROPERTIES, published 2024):

Target: p110β (isolated PI3K protein subunit, cell-free kinase ELISA) (UniProt P42338 1-1070, limits assumed)
Test: cell-based or functional assay

Sequence of p110β (isolated PI3K protein subunit, cell-free kinase ELISA) (P42338 whole entry): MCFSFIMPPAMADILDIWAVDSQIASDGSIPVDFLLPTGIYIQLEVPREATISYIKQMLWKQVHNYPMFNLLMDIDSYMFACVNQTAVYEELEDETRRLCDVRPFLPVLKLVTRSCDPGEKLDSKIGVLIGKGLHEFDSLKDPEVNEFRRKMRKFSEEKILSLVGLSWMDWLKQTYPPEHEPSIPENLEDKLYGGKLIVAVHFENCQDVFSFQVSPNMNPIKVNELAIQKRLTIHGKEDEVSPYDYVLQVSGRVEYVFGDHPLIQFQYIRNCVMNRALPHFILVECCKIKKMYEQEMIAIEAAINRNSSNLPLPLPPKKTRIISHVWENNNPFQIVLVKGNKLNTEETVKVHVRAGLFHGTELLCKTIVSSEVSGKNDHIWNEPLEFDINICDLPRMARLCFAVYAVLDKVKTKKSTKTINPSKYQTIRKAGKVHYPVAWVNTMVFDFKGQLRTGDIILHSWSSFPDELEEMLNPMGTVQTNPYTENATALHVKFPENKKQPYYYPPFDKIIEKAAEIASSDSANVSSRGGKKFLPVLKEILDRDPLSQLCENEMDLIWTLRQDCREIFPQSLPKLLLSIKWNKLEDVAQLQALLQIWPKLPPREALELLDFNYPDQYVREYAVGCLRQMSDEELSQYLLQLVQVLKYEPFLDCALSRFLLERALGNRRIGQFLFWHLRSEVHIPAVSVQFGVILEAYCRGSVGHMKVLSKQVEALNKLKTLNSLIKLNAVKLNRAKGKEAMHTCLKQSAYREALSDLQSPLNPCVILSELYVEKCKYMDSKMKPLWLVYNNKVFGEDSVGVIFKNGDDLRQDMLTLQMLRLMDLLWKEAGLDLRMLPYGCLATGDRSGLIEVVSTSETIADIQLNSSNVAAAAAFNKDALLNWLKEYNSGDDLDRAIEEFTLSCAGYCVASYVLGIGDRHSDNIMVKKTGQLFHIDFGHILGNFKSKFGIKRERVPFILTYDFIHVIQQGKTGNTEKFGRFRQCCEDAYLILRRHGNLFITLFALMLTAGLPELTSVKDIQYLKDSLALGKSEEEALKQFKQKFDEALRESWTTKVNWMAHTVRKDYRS

B1: Ante-Selectide-18 (peptide)
peptide: RQPKIWFPNRRKPWKKTKKSTKTINPSKYQTIRK
activity of the p110b catalytic subunit, measured via ELISA; Half Maximal Inhibitory Concentration (IC50): 105 nM
